# Columns and labels:
# [1] = target: T1, GST-cdc25c (200 to 250 amino acids) (UniProt P30307)
# T1 sequence: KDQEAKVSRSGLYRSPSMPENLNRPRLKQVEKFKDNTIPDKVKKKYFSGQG
# [2] = target: T2, human Chk1 (Accession number AF016582) protein prepared as a fusion protein with glutathione S-transferase (GST) (UniProt O14757)
# T2 sequence: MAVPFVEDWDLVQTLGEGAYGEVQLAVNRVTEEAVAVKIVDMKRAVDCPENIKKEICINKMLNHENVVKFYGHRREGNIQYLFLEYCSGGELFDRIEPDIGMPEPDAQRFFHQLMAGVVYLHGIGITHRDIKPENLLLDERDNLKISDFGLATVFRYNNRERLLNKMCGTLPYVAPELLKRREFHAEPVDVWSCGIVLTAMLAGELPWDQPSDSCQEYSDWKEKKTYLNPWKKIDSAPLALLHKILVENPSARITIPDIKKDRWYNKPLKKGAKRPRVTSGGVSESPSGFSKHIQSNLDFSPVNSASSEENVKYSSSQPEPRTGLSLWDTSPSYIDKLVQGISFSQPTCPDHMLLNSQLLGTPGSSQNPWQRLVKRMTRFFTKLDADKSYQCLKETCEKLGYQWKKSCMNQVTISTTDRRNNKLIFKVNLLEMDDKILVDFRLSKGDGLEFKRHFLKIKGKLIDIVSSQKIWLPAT
# [3] = system: histone H1 (J. Biochem. 100, 359, 1986)
# [4] = target: GST-weel (Accession number U10564) (UniProt P30291)
# Sequence of GST-weel (Accession number U10564) (P30291 whole entry, looked up): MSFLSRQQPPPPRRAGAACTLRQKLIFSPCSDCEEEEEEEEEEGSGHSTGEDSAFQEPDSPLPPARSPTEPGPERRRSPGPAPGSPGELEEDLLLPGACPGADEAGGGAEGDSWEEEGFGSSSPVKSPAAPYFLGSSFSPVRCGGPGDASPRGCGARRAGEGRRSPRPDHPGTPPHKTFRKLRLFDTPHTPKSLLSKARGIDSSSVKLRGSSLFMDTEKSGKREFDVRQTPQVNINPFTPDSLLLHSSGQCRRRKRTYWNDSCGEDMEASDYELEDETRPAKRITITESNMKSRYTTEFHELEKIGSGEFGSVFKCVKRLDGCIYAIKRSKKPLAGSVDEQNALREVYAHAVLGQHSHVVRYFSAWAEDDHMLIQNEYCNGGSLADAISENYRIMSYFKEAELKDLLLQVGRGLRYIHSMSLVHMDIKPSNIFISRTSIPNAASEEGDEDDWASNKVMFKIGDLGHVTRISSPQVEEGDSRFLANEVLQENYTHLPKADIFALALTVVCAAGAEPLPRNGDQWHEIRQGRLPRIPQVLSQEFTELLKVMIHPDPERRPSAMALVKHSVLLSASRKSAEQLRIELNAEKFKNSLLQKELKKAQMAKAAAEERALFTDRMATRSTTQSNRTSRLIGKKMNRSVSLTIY
# [5] = target: T3, GST-cdc25c (full-length) (Accession number L26584) (UniProt P30307)
# T3 sequence: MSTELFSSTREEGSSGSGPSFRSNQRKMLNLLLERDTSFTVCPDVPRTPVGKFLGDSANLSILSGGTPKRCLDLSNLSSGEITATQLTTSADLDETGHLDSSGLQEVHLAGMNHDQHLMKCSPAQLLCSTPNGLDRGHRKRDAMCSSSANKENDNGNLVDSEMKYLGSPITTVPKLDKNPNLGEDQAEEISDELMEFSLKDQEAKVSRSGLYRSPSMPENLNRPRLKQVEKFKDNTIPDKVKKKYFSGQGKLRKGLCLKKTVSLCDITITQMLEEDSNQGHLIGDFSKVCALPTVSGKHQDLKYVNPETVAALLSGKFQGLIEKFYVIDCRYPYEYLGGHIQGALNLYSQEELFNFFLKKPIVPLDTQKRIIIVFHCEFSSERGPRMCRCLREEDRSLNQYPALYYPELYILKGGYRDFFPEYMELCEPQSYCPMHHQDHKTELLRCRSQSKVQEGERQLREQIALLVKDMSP
substance,measurement,setting,value
"hCds1 KM mutant (249th lysine converted to methionine, myc/6xHis-tagged, expressed in Sf9 cells)","in vitro kinase assay ([gamma-32P]ATP, SDS-PAGE, autoradiography)",[1],failed to phosphorylate any substrate
same,"in vitro kinase assay ([gamma-32P]ATP, SDS-PAGE, autoradiography)",[2],failed to phosphorylate any substrate
same,"in vitro kinase assay ([gamma-32P]ATP, SDS-PAGE, autoradiography)",[3],failed to phosphorylate any substrate
same,"in vitro kinase assay ([gamma-32P]ATP, SDS-PAGE, autoradiography)",[4],failed to phosphorylate any substrate
same,"in vitro kinase assay ([gamma-32P]ATP, SDS-PAGE, autoradiography)",[5],failed to phosphorylate any substrate
"recombinant ""hCds1"" (human Cds1, wild type, myc/6xHis-tagged, expressed in Sf9 cells)","in vitro kinase assay ([gamma-32P]ATP, SDS-PAGE, autoradiography)",[1],efficiently phosphorylated
same,"in vitro kinase assay ([gamma-32P]ATP, SDS-PAGE, autoradiography)",[2],hardly phosphorylated
same,"in vitro kinase assay ([gamma-32P]ATP, SDS-PAGE, autoradiography)",[3],efficiently phosphorylated
same,"in vitro kinase assay ([gamma-32P]ATP, SDS-PAGE, autoradiography)",[4],hardly phosphorylated
same,"in vitro kinase assay ([gamma-32P]ATP, SDS-PAGE, autoradiography)",[5],efficiently phosphorylated

# Reference: US20020012964
